{
  "source": "patent US11180767B2",
  "about": "“Protease deficient filamentous fungal cells and methods of use thereof” (GLYKOS FINLAND OY, priority 2012, dated 2021)",
  "molecules": {"B1": {"name": "SBTI: soybean trypsin inhibitor, trypsin and subtilisin inhibitor (protein)", "chain": "DFVLDNEGNPLENGGTYYILSDITAFGGIRAAPTGNERCPLTVVQSRNELDKGIGTIISSPYRIRFIAEGHPLSLKFDSFAVIMLCVGIPTEWSVVEDLPEGPAVKIGENKDAMDGWFRLERVSDDEFNNYKLVFCPQQAEDDKCGDIGISIDHDDGTRRLVVSKNKPLVVQFQKLDKESL"}},
  "key": {"green fluorescent casein": {"test_system": "green fluorescent casein", "assay": "Total protease activity of culture supernatants against fluorescent casein", "assay_type": "biochemical", "conditions": "1 L fermentor, pH 5.5, casein FL", "protocol": "The total protease activity of culture supernatant from the quadruple deletion strain M307 was then measured and compared with culture supernatants from the triple deletion strain M277 and the wild type strain M124. Each strain was grown in 2 liter shake flasks with 300 ml TrMM containing 40 g/l lactose, 20 g/l spent grain extract, and 100 mM PIPPS at pH 5.5. Day 7 supernatant samples were taken for total protease assay. The total protein concentrations of the supernatants were measured using the BCA assay with bovine immunoglobulin as the standard. The supernatants were diluted serially 1:2 in sodium citrate buffer at pH 5.5. […] The fluorescence was measured after 1 hour at 485 nm excitation and 530 nm emission.\nThe full length antibody yield calculated was 20% higher in the gap1 deletion strain from the day 6 sample. […] From the fermentor supernatants, the total protease activity against casein was measured. […]\nThe protein concentrations were determined from all supernatant samples from day 2-7. […] The fluorescence from the wells was measured after 2, 3, and 4 hours. The readings were done on the Varioskan fluorescent plate reader using 485 nm excitation and 530 nm emission.\nThe protease activity from the cultivations listed in Table 22.4 was measured in order to determine how the total protease activities were affected by the RNAi. […]"}, "[1]": {"test_system": "tryptic and chymotryptic proteases", "assay": "In vitro inhibitor treatment: rituximab heavy chain degradation in M44 supernatant", "assay_type": "biochemical, Trichoderma reesei", "conditions": "100 μM chymostatin or 1 mg/ml SBTI; M44 supernatant 6 mg/ml, pH 5.5", "protocol": "Based on the knowledge that the heavy chain is cleaved by tryptic and chymotryptic proteases, inhibitors of these two enzyme classes were tested against antibody degradation both in vitro and in culture experiments utilizing an antibody producing T. reesei strain. The inhibitors soybean trypsin inhibitor (SBTI) and chymostatin were tested, as they have been previously shown in in vitro experiments to stabilize antibody heavy chains.\nChymostatin and SBTI were analyzed in vitro with culture supernatant. Supernatant from a fed batch fermentor culture was diluted to 6 mg/ml with sodium citrate buffer pH 5.5 (pH 5.5; 28° C.; 20 g/L spent grain extract, 60 g/L lactose). […] The strain was grown in Trichoderma minimal medium supplemented with 20 g/l spent grain extract and 60 g/l lactose at pH 5.5 and 28° C.\nTo this diluted supernatant 0.05 μg μl of rituximab, 100 μM chymostatin, 1 mg/ml SBTI, or a combination of both inhibitors was added in a total volume of 50 μl and sampled at 0, 1, and 19 hours to assess the early and late degradation of the rituximab antibody heavy chain. The resulting heavy chain products were analyzed by immunoblot using and anti-heavy chain AP conjugated antibody (Sigma #A3188) diluted 1:30,000 in TBST (FIG. 35). […] Additional fragments were generated after 19 hours, the two major products remained."}, "[2]": {"test_system": "M369 human growth hormone strain", "assay": "hGH production in 24 well cultures with inhibitors and supplements", "assay_type": "cell-based, Trichoderma reesei", "conditions": "24 well culture, pH 4.5, day 4 immunoblot", "protocol": "To evaluate what inhibitors would best stabilize production of hGH, 24 well cultures of these strains were performed. The M369 human growth hormone strain (Δpep1Δtsp1Δslp1Δgap1Δgap2) was grown along with single components or with combinations of the following: trypsin and subtilisin inhibitor SBTI, the acidic protease inhibitor peptide SIP, the acidic protease inhibitor peptide LIP, the aspartic protease inhibitor pepstatin A free peptide, pepstatin A immobilized to agarose beads, the trypsin and subtilisin inhibitor BBI from lima bean, the […] chymostatin, and BSA. Three independent wells were chosen for control wells where no inhibitors or supplements were added. These two strains were grown in 3 ml of TrMM with diammonium citrate without ammonium sulfate, 100 mM PIPPS, 20 g/L spent grain extract, 40 g/L lactose adjusted to pH 4.5. The 24 well plates were shaken at 800 rpm, 85% humidity, and 28° C. The cultures were grown for 6 days and covered with an air permeable membrane.\nInhibitors were added first on day 1 and then daily beginning on day 3. 100 μl samples were taken from the culture wells beginning on day 3. The mycelium was spun down for 5 minutes at 13 k and the supernatant collected. […]"}},
  "data": [
    {"molecule": "B1", "values": [
      {"measurement": "protease activity of M507 culture supplemented with inhibitor", "setting": "green fluorescent casein", "value": "protease activity also dropped from day 6 until day 8"},
      {"measurement": "rituximab heavy chain fragment formation", "setting": "[1]", "value": "inhibited the 38 kD fragment from forming"},
      {"measurement": "effect on hGH production", "setting": "[2]", "value": "improved production"}
    ]}
  ]
}
